Patent US20040001822A1, “Y1-isolated molecules comprising epitopes containing sulfated moieties, antibodies to such epitopes, and uses thereof” (priority 2000, published 2004)

Assays:
[1] = system: washed platelets; assay: Ristocetin-induced agglutination of washed platelets after preincubation with scFv; assay type: cell-based, human
Experimental: Aggregation is determined in PRP due to the presence of thrombotic agents, while agglutination is determined in washed platelets. The effect of Y1 (scFv) on agglutination of washed platelets was tested at various concentrations of Y1. Platelets were pre-incubated with Y1 scFv, Y17 scFv, Y16-scFv, or a control TM-1 scFv for 4 min at 37° C. before being exposed to ristocetin, an inducer of platelet agglutination and aggregation.
Platelet concentrate in acid-citrate-dextrose (ACD) was obtained from a blood bank, platelets were isolated, washed once in buffer containing ACD and saline in a ratio of 1:7. The platelets were centrifuged at 800 g for 10 min after each wash and were resuspended in Tyrodes solution (2 mM MgCl2, 137 mM NaCl, 2.68 mM KCl, 3 mM NaH2PO4, 0.1% glucose, 5 mM Hepes and 0.35% albumin, pH 7.35) and count the number of cells.
(§1) For platelet aggregation studies, platelet rich plasma (PRP) and washed platelets were stirred at 500 rpm at 37° C. in whole blood Lumiaggregometer (Chronolog, Havertown,Pa.). The difference in light transmission through the platelet suspension and suspending medium was taken as 100% aggregation. The effect of Y1 on platelet aggregation was evaluated by addition of different concentration of Y1 before the addition of agonist, and the effect was recorded for four minutes.
The effect of Y17-scFv on vWF-dependent agglutination of platelets was tested at different concentrations of Y17.

[2] = system: platelet-rich-plasma (PRP); assay: Ristocetin-induced aggregation of platelet-rich plasma after preincubation with scFv; assay type: cell-based, human; conditions: scFv 38 μg/ml
Experimental: The effect of Y1 (scfv) on aggregation of platelet-rich-plasma (PRP) was tested at various concentrations of Y1. PRP was pre-incubated with Y1 scfv, Y17 scfv, or a control sTM-1cFv for 4 min at 37° C. before being exposed to ristocetin, an inducer of platelet agglutination and aggregation. A reversible inhibitory effect was observed when scFv was added to PRP prior to the addition of ristocetin, and it was dose dependent.
Blood was collected into a tube containing 3.8% sodium citrate. Platelet-rich plasma was prepared by centrifugation at 250×g for 10 minutes.
as §1

[3] = system: MOLT-4 cells; assay: T-ALL (MOLT4) model in SCID mice; assay type: in vivo
Experimental: The in vivo mouse model for T-ALL uses SCID mice (Jackson Laboratories) injected with MOLT4 cells derived from a T cell leukemia patient.
In one experiment, SCID mice were pretreated with 100 mg/kg Cytoxan (CTX, Cycloposphamid for injection, Mead Johnson). Eleven days after CTX injection, MOLT-4 cell were injected intravenously into the tail vein. Control mice were injected with PBS alone. One week post-MOLT-4 injection mice were injected with CONY1-Doxorubicin, which is a conjugate between scFv CON Y1 polypeptide, having KAK amino acid residues at its carboxy end and doxorubicin via a short organic linker; CONY1, which is a scFv antibody fragment derived from Y1 scFv in which the DNA sequences encoding the myc tag of Y1 were deleted and replaced with a DNA sequence encoding the amino acids lysine, alanine, lysine (KAK); or free Doxorubicin. The mice were injected three times per week for three weeks. […] (Table M).
Mice started to die 32 days post cell inoculation, and the surviving mice were sacrificed at this time. Bone marrow cells were analyzed by flow cytometry using anti-human CD44-FITC and Y1-Biotin/SAV-PE. Blood samples from several animals were monitored for platelet and white blood cell count. Livers were weighted and examined for tumor appearance. Other organs were also examined for tumor appearance.
In a second experiment, SCID mice were i.v. injected with 2×10^7 MOLT-4 cells/mouse, 5 days post treatment with cyclophosphamide. Anti-cancer agents or PBS (negative control animals) were injected i.v. three times/week from day 5 post MOLT-4 cells injection and onward. On day 35, blood was drawn from the animals, the animals were sacrificed, and their livers were excised and weighed. In the untreated, PBS-treated MOLT-4 cell-bearing animals, the liver presented with a very massive tumor growth, and its size was increased 2-3-fold relative to PBS control uninfected animals. In this experiment, there were five treatment groups:
In parallel, portions of liver tissue were taken for histology and cell harvesting for FACS analysis. The survival rate of another group of treated animals was recorded relative to that of control untreated mice.
In a third experiment, using the identical SCID/MOLT-4 protocol, there were 6 groups: […]

[4] = Pharmacokinetics of 125I-CONY1 after intravenous injection; assay type: in vivo, Male Balb-C mice
Experimental: Two to four mice were used per time point. […] Organ/tissue total and specific radioactivity values were calculated.

[5] = biological target: T1, GPIb (glycocalicin) derived from platelets (Homo sapiens, UniProt P07359); assay: ELISA to glycocalicin, monomer versus cysteine dimer; assay type: binding
T1 construct: glycocalicin (soluble, extracellular fragment of GPIbα); from tissue; host or cells: human platelets
Experimental: An ELISA assay was performed to ascertain the differences in binding between the monomer (the Y1 scFv-also known as Y1-kak) and the dimer Y1-cys-kak (the cysteine dimer) for antigen GPIb (glycocalicin) derived from platelets. A polyclonal anti single chain antibody and/or a novel polyclonal anti-VL (derived from rabbits) and anti-rabbit HRP, were used to detect the binding to GPIb. […] For instance, to reach 0.8 OD units 12.8 μg/ml of monomer was used compared to only 0.1 μg/ml of dimer.
100 ml of purified glycocalicin was incubated in a 96 flat well maxisorp plates, overnight at 4 degrees celsius. The plate was washed with PBST (PBS+0.05% tween) 3 times, then […] of PBST-milk (PBST+2% Non fat milk), for 1 hr at room temperature. The plate was washed with PBST, and the monomer or dimer (100 ml) was added in PBST-milk at different concentrations for 1 hr at room temp. Then the plate was washed and anti-VL polyclonal (derived from immunized rabbits with VL derived from Y1) (1:100 diluted in PBST-milk) was added for an hour. The plate was washed and anti-rabbit HRP was added for an additional hour. The plate was washed 5 times and 100 μl TMB substrate was added for approximately 15 minutes then 100 μl of 0.5 H2SO4 was added to stop the reaction. The optical density of the plate was measured at 450 nm in an ELISA reader.

[6] = system: KG-1 cells; assay: AML KG-1 model in NOD/SCID mice; assay type: in vivo
Experimental: The in vivo mouse model for human AML uses SCID/NOD mice (Jackson Laboratories) inoculated with KG-1 cells derived from a human AML cell line.
In a first experiment, NOD/SCID mice were pretreated with 100 mg/kg CYTOXAN®. Four days post CYTOXAN® injection, KG-1 cells were injected intravenously into the tail vein of six groups of mice. (Table N, Groups 2 and 5-9). One group of mice (Table N, Group 1) was injected with PBS alone (control).
Beginning 19 days post KG-1 injection mice were treated with: CONY1, Doxorubicin, CONY1-Doxorubicin conjugate, or Mylotarg®. (Mylotarg® is a monoclonal antibody (anti CD33) conjugated chemically to calcheamicin recently approved by the FDA for treatment of AML patients age 60 and over in a first relapse.) Mice were treated once or three times per week for three weeks. […]
Mice were sacrificed from 60 to 65 days post cell injection. Bone marrow samples were analyzed by flow cytometry using mouse anti human CD34-FITC (IQP 144F) (or anti CD44-FITC (MCA89F, Serotec)) and Y1-Biotin/SAV-PE. […]
An additional experiment was performed in which SCID-NOD mice were i.v. injected with 3×10^4 MOLT-4 cells/mouse 5 days post treatment with cyclophosphamide. […] Bone marrow was extracted and analyzed by FACS analysis using a commercially available antiCD44 antibody for the detection of MOLT-4 cells in the mice bone marrow cell population.

[7] = scFv 25 μg/ml, ristocetin = 100% agglutination

Molecule | inhibition of vWF-dependent platelet agglutination induced by ristocetin ([1]; final concentration of 10, 25 or 50 μg/ml) | % agglutination [1, 7] [%] | % inhibition [1, 7] [%] | % aggregation [2] [%] | % inhibition ([2]; listed as Y17) | liver weight versus free Doxorubicin or untreated ([3]; first experiment, three times per week for three weeks, sacrifice 32 days post cell inoculation) | survival ([3]; mice which received continued treatment) | liver weights / tumor growth in the liver ([3]; second experiment, day 35, i.v. three times/week, CONY1 and conjugate 75 μg/mouse, Doxorubicin 0.1 mg/kg) | tumor growth (based on liver weights) ([3]; third experiment, CONY1 scFv 75 μg/mouse, Y1-IgG 5 μg/mouse) | half-life of blood clearance, first compartment ([4]; 15 μg per mouse i.v., plasma TCA precipitable radioactivity, two-compartment model) [h] | half-life of blood clearance, second compartment ([4]; 15 μg per mouse i.v., two-compartment model) [h] | distribution between plasma and erythrocytes ([4]; blood versus plasma radioactivity) | specific uptake in body tissues ([4]; liver, lung, kidney, spleen, bone marrow, 5 minutes to 24 hours) | concentration to reach 0.8 OD units [5] [µg/mL] | prevalence of cancer cells in the bone marrow ([6]; additional experiment, day 60, CONY1 scFv 75 μg/mouse three times/week, Mylotarg 7 μg/mouse once a week) | percentage of KG-1 cells in bone marrow ([6]; first experiment, KG-1 cells incubated in vitro with scFv before injection (groups 3 and 4))
Y17 scFv: second scFv clone binding platelets and myelogenous leukemia cell lines, SEQ ID NO: 203 (protein, listed as Homo sapiens) scFv: MKYLLPTAAAGLLLLAAQPAMAEVQLVESGGGVVRPGGSLRLSCAASGFTFDDYGMSWVRQAPGKGLEWVSGINWNGGSTGYADSVKGRFTISRDNAKNSLYLQMNSLRAEDTAVYYCARLTHPYFWGQGTLVTVSRGGGGSGGGGSGGGGSSELTQDPAVSVALGQTVRITCQGDSLRSYYASWYQQKPGQAPVLVIYGKNNRPSGIPDRFSGSSSGNTASLTITGAQAEDEADYYCNSRDSSGNHVVFGGGTKLTVLGAAAEQKLISEEDLNGAA | did not inhibit | 85 | 15 | 100 | did not inhibit | – | – | – | – | – | – | – | – | – | – | –
CONY1: scFv derived from Y1 scFv with the myc tag replaced by lysine, alanine, lysine (KAK), SEQ ID NO: 204 (protein, listed as Homo sapiens) scFv: MKYLLPTAAAGLLLLAAQPAMAEVQLVESGGGVVRPGGSLRLSCAASGFTFDDYGMSWVRQAPGKGLEWVSGINWNGGSTGYADSVKGRFTISRDNAKNSLYLQMNSLRAEDTAVYYCARMRAPVIWGQGTLVTVSRGGGGSGGGGSGGGGSSELTQDPAVSVALGQTVRITCQGDSLRSYYASWYQQKPGQAPVLVIYGKNNRPSGIPDRFSGSSSGNTASLTITGAQAEDEADYYCNSRDSSGNHVVFGGGTKLTVLGAAAKAK | – | – | – | – | – | weighted significantly less | prolonged | markedly inhibited tumor growth in the liver | inhibited tumor growth | 0.583 | 3.17 | practically all of the CONY-1 resided in the plasma and did not adhere to erythrocytes | no major specific uptake | 12.8 | had no effect | significantly lower percentage
